Assay results as given in publication PMC11234457, “Antitumor Effect of Anti‐c‐Myc Aptamer‐Based PROTAC for Degradation of the c‐Myc Protein”.
Numbering of substitutions follows the chain as printed.

Assays:
c-Myc [1] = biological target: T1, c-Myc (Homo sapiens, UniProt P01106 16-454); assay: ELISA; 200 nM aptamer, 100 ng c-Myc/well; ELISA: c-Myc coated on microplate (100 mM NaHCO3 pH 9.6, 4 C overnight), 2% BSA in PBST block, binding buffer (composition not in material), RT 30 min; conditions: protein: commercial; tags: none (untagged); label: 5' biotin (ELISA, pull-down); FAM (flow)
T1 sequence (P01106 16-454): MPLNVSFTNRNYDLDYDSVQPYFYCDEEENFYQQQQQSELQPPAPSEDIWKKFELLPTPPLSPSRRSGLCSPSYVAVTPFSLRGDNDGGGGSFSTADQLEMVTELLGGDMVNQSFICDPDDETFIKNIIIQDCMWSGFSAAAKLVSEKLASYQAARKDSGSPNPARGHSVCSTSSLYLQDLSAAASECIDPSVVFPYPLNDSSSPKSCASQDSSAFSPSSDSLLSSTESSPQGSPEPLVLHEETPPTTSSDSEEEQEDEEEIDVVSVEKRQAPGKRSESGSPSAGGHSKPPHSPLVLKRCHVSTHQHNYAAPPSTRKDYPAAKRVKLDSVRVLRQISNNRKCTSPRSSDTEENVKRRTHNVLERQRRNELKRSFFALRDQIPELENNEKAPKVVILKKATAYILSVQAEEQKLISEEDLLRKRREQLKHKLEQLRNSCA

c-Myc [2] = biological target: T1, c-Myc; assay: ELISA; ELISA: c-Myc coated on microplate (100 mM NaHCO3 pH 9.6, 4 C overnight), 2% BSA in PBST block, binding buffer (composition not in material), RT 30 min; conditions: protein: commercial; tags: none (untagged)
c-Myc [3] = biological target: T1, c-Myc; assay: competition ELISA; affinity consistent with ProMyc; ELISA: c-Myc coated on microplate (100 mM NaHCO3 pH 9.6, 4 C overnight), 2% BSA in PBST block, binding buffer (composition not in material), RT 30 min; conditions: protein: commercial; tags: none (untagged); cloverleaf (predicted)
c-Myc [4] = biological target: T1, c-Myc; assay: competition ELISA; 200 nM ProMyc, 50 ng c-Myc; ELISA: c-Myc coated on microplate (100 mM NaHCO3 pH 9.6, 4 C overnight), 2% BSA in PBST block, binding buffer (composition not in material), RT 30 min; conditions: protein: commercial; tags: none (untagged); cloverleaf (predicted)
c-Myc [5] = biological target: T1, c-Myc; assay: ELISA; comparable to MA9; ELISA: c-Myc coated on microplate (100 mM NaHCO3 pH 9.6, 4 C overnight), 2% BSA in PBST block, binding buffer (composition not in material), RT 30 min; conditions: protein: commercial; tags: none (untagged); label: 5' biotin; FAM; cy3; cloverleaf (predicted)

B1: MA9 (ssDNA)
DNA: CGTTACTTCTGTTCGTTCTCATGGCGAACCCTGTATGGCGCGTAAGTCGGGGAGTAACGTCTGCCTAGTTCCTTGTCTGATCTCCA
B1: binds (c-Myc [1]).

B2: MA9C1-mut (structured_DNA)
DNA: CGTTAATTCTGTTCGTTCTCATGGCGAACCCTGTATGACACGTTTGACGGGGAGTAACG
B2: no binding (c-Myc [2]).

B3: ProMyc-VHL (structured_DNA)
DNA: B2 DNA with A6C, A38G, A40G, T44A, T45A, A47T
modifications: 5' NH2-C6 linked to (S,R,S)-AHPC-PEG5
B3: binds (c-Myc [3]).

B4: ProMyc (structured_DNA)
DNA: B2 DNA with A6C, A38G, A40G, T44A, T45A, A47T
modifications: 5' NH2-C6 linked to pomalidomide-PEG4
B4: binds (c-Myc [4]).

B5: MA9C1 (structured_DNA)
DNA: B2 DNA with A6C, A38G, A40G, T44A, T45A, A47T
B5: binds (c-Myc [5]).
